Experiments:
[1] = Demethylation of syringic acid (GC methanol, UHPLC/MSMS); assay type: biochemical
Description: Syringic acid (12 mM, 2.38 g/L) was incubated with PPO7 from Example 2 (1.2 μM, 0.048 g/L, 2% loading (w/w)) in 50 mM BisTris buffer pH 6.5 with 10 μM CuSO4. Blank prepared without the addition of enzyme was included. Incubations were performed in GC headspace vials with a total of 1 mL reaction volume in duplicate at room temperature for approximately 90 h. The reaction was stopped by adding 28 μL 1M HCl to lower the pH to ˜3. One of the replicates was analyzed by GC for the methanol formation. A calibration range of 0.23 to 11.6 mM methanol in buffer with HCl was included. The second replicate was analyzed using UHPLC and the formation 3,4-dihydroxy-5-methoxybenzoic acid was confirmed using MSMS (see FIG. 5).

[2] = Methanol formation by GC, model compound; assay type: biochemical; conditions: for methanol: 2% enzyme loading, approx. 48 h
Description: (§1) Model compounds syringic acid, syringol, 1,3-dimethoxybenzene and 3,5-dimethoxybenzoic acid (12 mM) were incubated with PPO7 from Example 2 (2% loading (w/w)) in 50 mM BisTris buffer pH 6.5 with 10 μM CuSO4. For syringic acid and syringol PPO2 from Example 2 was included as a control. Lignin and lignin-derived compounds (10 g/L) were incubated with PPO7 from Example 2 (0.5 g/L, 5% loading (w/w)). PPO2 from Example 2 was included as a control and incubated using the same conditions. Blanks prepared without the addition of enzyme were included. Incubations were performed in GC headspace vials with a total of 1 mL reaction volume at 25° C. for approximately 48 h while shaking. The reaction was stopped by adding 28 μL 1M HCl to lower the pH to ˜3. Samples were analyzed by GC for methanol formation. A calibration range of 0.23 to 11.5 mM methanol in buffer with HCl was included.

[3] = Methanol formation by GC, lignin; assay type: biochemical; conditions: enzyme 0.5 g/L, 25° C., approx. 48 h
Description: as §1

[4] = Methanol formation by GC, lignin-derived compound; assay type: biochemical; conditions: enzyme 0.5 g/L, 25° C., approx. 48 h
Description: as §1

[5] = target: T1, RAC incubated with LPMO9B (Thermothelomyces thermophilus, UniProt G2QCJ3); test: RAC hydrolysis assay with LPMO9B and PPO7 or AbTyr in the presence of phenolic reducing agents; assay type: biochemical, Myceliophthora thermophila; conditions: LPMO9B alone = 100%, or with added enzyme, pH 5.0, 50° C., 24 h
T1 construct: made in house; host or cells: Myceliophthora thermophila C1 strain W1L#100.1Δpyr5ΔAlp1
T1 sequence (G2QCJ3 19-323): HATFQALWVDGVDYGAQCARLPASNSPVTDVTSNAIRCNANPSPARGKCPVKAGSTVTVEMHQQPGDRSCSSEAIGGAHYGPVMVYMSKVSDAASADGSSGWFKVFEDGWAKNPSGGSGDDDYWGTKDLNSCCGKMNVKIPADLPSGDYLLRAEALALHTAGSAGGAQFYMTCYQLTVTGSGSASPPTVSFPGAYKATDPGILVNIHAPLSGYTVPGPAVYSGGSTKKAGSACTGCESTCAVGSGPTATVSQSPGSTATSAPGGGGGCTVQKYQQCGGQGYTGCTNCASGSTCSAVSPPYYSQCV
Description: Phenolic reducing agents were obtained from Sigma-Aldrich (St. Louis, Mo., USA). RAC was prepared as described above and dissolved in 50 mM phospate buffer (pH 5.0) to a final concentration of 1.5 mg/ml. Copper chloride was added to a final concentration of 2.5 μM and a phenolic reducing agent to a final concentration of 2 mM. LPMO9B (5 μg/ml) with or without PPO7 (5 μg/ml) or AbTyr (7.5 U/ml) were added and incubated for 24 h at 50° C. in a head-over-tail rotator in portions of 1 mL total volume (Stuart® rotator, Bibby Scientific LTD, Stone, UK) at 20 rpm. Products were analysed by HPAEC and MALDI-TOF MS as described previously. (Frommhagen M, Sforza S, Westphal A H, Visser J, Hinz S W, Koetsier M J et al. Discovery of the combined oxidative cleavage of plant xylan and cellulose by a new fungal polysaccharide monooxygenase. Biotechnology for Biofuels. 2015; 8:101. doi:10.1186/s13068-015-0284-1). The Activity denoted as Activity * represents total release of non-oxidized and C1-oxidized gluco-oligosaccharides from RAC incubated with LPMO9B in the presence of a phenolic reducing agent and with addition of either AbTyr or PPO7. […] Standard deviations were less than 2%.

[6] = 12 mM syringic acid, enzyme 0.048 g/L, pH 6.5, 10 μM CuSO4, room temperature, approx. 90 h, blank 0

B1: PPO7: Myceliophthora thermophila C1 polyphenoloxidase with demethylating activity, mature form SEQ ID NO: 45 (protein, listed as Myceliophthora thermophila)
chain: NPMHKRWKPNAPRNPDFPLDEVDKLEESIMPNVEAWMSKRPAKYSNCTLENAGIRREWSDLSVDERKEYISAVLCLQSKPSKIPEGEVPGALSRFDDFVATHMTMAGQLHSPTNLFAAHRYFIHAYEKALREECGYKGYQPYMNYDRYADDPLNTPLFDGSDSSMSGNGGPYNYSGIPQPFPKPYNLIPPAGGGGCVTEGPFRDMVVSLGPKGGLFHDIPRNPRADGLGSNPRCLRRDVNKYSARGARANYTYSAIMDNPDIDSFYNRYMGMPQLKGDPYPWGLHSSGHYLIGGDPGGDFYCSPGDPLFYFHHGMLDRVWWIWQMQDPENRVQAVPGTNTMPMPPLMAANLESEAAATTTHKRAVNVSDLVVDLGWTAPPVKLVDLNEQLGGLGGELCYIYV
3,4-dihydroxy-5-methoxybenzoic acid concentration (UHPLC) [1, 6]: 1.61 mM | methanol concentration (GC) [1, 6]: 4.84 mM | syringic acid concentration (UHPLC) ([1]; 12 mM syringic acid, enzyme 0.048 g/L, pH 6.5, 10 μM CuSO4, room temperature, approx. 90 h, blank 10.86): 3.02 mM | Demethylation of syringic acid (in words) ([1]; formation of 3,4-dihydroxy-5-methoxybenzoic acid and methanol): catalyzed the demethylation of syringic acid | Methanol release (in words) ([2]; 1,3-dimethoxybenzene): no methanol release | methanol ([2]; 1,3-dimethoxybenzene 12 mM, 25° C., blank 0): 0 mM | Methanol release (in words) ([2]; 3,5-dimethoxybenzoic acid): no methanol release | methanol ([2]; 3,5-dimethoxybenzoic acid 12 mM, 25° C., blank 0): 0 mM | Demethylation of syringic acid (in words) ([2]; Example 9 conditions): catalyzed the demethylation | Demethylation of syringol (in words) ([2]; Example 9 conditions): catalyzed the demethylation | methanol ([2]; Syringic acid 12 mM, pH 6.5, 10 μM CuSO4, 25° C., blank 0): 4.58 mM | methanol ([2]; Syringol 12 mM, pH 6.5, 10 μM CuSO4, 25° C., blank 0.06): 5.73 mM | methanol ([3]; Corn stover BioLignin 10 g/L, blank 0): 0.27 mM | methanol ([3]; Wheat straw BioLignin 10 g/L, blank 0.10): 0.28 mM | methanol ([4]; Carboxymodified lignin (corn) 10 g/L, blank 0): 0.35 mM | methanol ([4]; Carboxymodified lignin (wheat)1 10 g/L, blank 0): 0.31 mM | methanol ([4]; Carboxymodified lignin (wheat)2 10 g/L, blank 0): 0.33 mM | methanol ([4]; Fractionated BioLignin 10 g/L, blank 0.28): 0.46 mM | methanol ([4]; Lowest MW from lignin fractionation 10 g/L, blank 0.04): 1.43 mM | methanol ([4]; Purified wheat straw BioLignin 10 g/L, blank 0.05): 0.21 mM | Activity: total release of non-oxidized and C1-oxidized gluco-oligosaccharides from RAC ([5]; reducing agent 3,4-dihydroxy-5-methoxybenzoic acid 2 mM): 22% | Activity: total release of non-oxidized and C1-oxidized gluco-oligosaccharides from RAC ([5]; reducing agent 3,4-dihydroxy-5-methoxycinnamic acid 2 mM): 116% | Activity: total release of non-oxidized and C1-oxidized gluco-oligosaccharides from RAC ([5]; reducing agent 3,4-dihydroxybenzoic acid 2 mM): 139% | Activity: total release of non-oxidized and C1-oxidized gluco-oligosaccharides from RAC ([5]; reducing agent 3-hydroxy-4-methoxycinnamic acid 2 mM): 7558% | Activity: total release of non-oxidized and C1-oxidized gluco-oligosaccharides from RAC ([5]; reducing agent 3-methylcatechol 2 mM): 104% | Activity: total release of non-oxidized and C1-oxidized gluco-oligosaccharides from RAC ([5]; reducing agent 4-allyl-2,4-methoxyphenol 2 mM): 108% | Activity: total release of non-oxidized and C1-oxidized gluco-oligosaccharides from RAC ([5]; reducing agent 4-hydroxy-3-methoxyphenylactone 2 mM): 131% | Activity: total release of non-oxidized and C1-oxidized gluco-oligosaccharides from RAC ([5]; reducing agent caffeic acid 2 mM): 122% | Activity: total release of non-oxidized and C1-oxidized gluco-oligosaccharides from RAC ([5]; reducing agent coniferyl aldehyde 2 mM): 562% | Activity: total release of non-oxidized and C1-oxidized gluco-oligosaccharides from RAC ([5]; reducing agent ferulic acid 2 mM): 231% | Activity: total release of non-oxidized and C1-oxidized gluco-oligosaccharides from RAC ([5]; reducing agent gallic acid 2 mM): 124% | Activity: total release of non-oxidized and C1-oxidized gluco-oligosaccharides from RAC ([5]; reducing agent guaiacol 2 mM): 5143% | Activity: total release of non-oxidized and C1-oxidized gluco-oligosaccharides from RAC ([5]; reducing agent hesperidin 2 mM): 771% | Activity: total release of non-oxidized and C1-oxidized gluco-oligosaccharides from RAC ([5]; reducing agent homovanillic acid 2 mM): 580% | Activity: total release of non-oxidized and C1-oxidized gluco-oligosaccharides from RAC ([5]; reducing agent vanillic acid 2 mM): 495%
